Values quoted from earlier work, collected in PMC10530976.
pKd: −log10 of the molar value.

Target: Kv1.2 (UniProt P16389)
UniProt P16389, sequence (P16389 whole entry): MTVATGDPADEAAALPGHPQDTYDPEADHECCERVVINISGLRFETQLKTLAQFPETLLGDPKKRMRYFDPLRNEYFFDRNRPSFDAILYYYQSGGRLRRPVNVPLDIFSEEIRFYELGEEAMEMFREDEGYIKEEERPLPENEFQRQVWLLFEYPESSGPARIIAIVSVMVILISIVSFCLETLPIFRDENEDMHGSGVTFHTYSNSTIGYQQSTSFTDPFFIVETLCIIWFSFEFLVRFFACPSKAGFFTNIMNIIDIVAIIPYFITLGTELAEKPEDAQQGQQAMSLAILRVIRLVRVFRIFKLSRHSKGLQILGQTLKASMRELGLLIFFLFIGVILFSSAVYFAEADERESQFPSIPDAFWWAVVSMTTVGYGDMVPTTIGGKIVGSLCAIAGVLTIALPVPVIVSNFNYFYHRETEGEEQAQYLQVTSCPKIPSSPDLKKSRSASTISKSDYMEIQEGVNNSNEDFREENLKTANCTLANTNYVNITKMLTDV

In the case of OSK2 (from UniProt P83244), the pKd is given as 8.22.
